Measured values reported in patent publication US20160136234A1.

Columns and labels:
Test in all cases: cell-based or functional assay
ALK4 (h) (human) = target: T1, ALK4 (h) (human) (UniProt P36896)
T1 sequence (looked up): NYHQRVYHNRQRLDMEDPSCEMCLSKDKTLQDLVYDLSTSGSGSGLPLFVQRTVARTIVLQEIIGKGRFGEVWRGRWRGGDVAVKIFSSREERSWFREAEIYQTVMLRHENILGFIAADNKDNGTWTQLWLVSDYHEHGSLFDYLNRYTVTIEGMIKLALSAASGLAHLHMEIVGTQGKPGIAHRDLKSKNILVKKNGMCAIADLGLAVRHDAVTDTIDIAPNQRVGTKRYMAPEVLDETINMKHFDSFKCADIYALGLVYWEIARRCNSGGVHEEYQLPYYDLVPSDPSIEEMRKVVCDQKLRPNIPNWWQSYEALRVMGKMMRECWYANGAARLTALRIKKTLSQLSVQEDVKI

ASK1 (h) (human) = ASK1 (h) (human) (UniProt Q99683)
[1] = target: BDNF/NT-3 growth factors receptor (human) (UniProt Q16620)
[2] = target: CDK9/cyclin T1 (h) (human) (UniProt P50750)
CHK1 (h) (human) = target: T2, CHK1 (h) (human) (UniProt O14757)
T2 sequence (looked up): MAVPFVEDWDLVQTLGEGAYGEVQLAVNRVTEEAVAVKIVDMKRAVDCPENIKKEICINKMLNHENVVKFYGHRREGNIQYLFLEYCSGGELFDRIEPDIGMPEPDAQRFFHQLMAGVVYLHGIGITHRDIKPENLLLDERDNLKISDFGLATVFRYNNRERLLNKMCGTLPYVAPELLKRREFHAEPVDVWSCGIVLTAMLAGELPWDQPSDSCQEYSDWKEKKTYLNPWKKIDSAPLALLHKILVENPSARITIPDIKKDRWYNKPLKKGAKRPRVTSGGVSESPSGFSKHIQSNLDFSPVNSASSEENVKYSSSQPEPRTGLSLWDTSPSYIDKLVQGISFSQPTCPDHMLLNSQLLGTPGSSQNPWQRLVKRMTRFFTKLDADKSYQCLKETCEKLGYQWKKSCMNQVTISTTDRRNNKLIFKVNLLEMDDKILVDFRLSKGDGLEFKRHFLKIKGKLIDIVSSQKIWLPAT

CK1γ2 (h) (human) = CK1γ2 (h) (human) (UniProt P78368)
DAPK2 (h) (human) = DAPK2 (h) (human) (UniProt Q9UIK4)
DMPK (h) (human) = DMPK (h) (human) (UniProt Q09013)
DYRK2 (h) (human) = DYRK2 (h) (human) (UniProt Q92630)
GRK6 (h) (human) = GRK6 (h) (human) (UniProt P43250)
HIPK1 (h) (human) = HIPK1 (h) (human) (UniProt Q86Z02)
HIPK3 (h) (human) = HIPK3 (h) (human) (UniProt Q9H422)
Hck (h) (human) = Hck (h) (human) (UniProt P08631)
LIMK1 (h) (human) = LIMK1 (h) (human) (UniProt P53667)
MLCK (h) (human) = target: MLCK (h) (human)
[3] = target: Mitogen-Activated Protein Kinase-Activated Protein Kinase 2 (human) (UniProt P49137)
[4] = target: Mitogen-Activated Protein Kinase-Activated Protein Kinase 3 (human) (UniProt Q16644)
PAK2 (h) (human) = PAK2 (h) (human) (UniProt Q13177)
PKBγ (h) (human) = PKBγ (h) (human) (UniProt Q9Y243)
PKCα (h) (human) = PKCα (h) (human) (UniProt P17252)
PKCτ (h) (human) = target: PKCτ (h) (human)
PTK5 (h) (human) = PTK5 (h) (human) (UniProt P42685)
Pim-1 (h) (human) = Pim-1 (h) (human) (UniProt P11309)
Src(1-530) (h) (human) = Src(1-530) (h) (human) (UniProt P12931)
TSSK2 (h) (human) = target: T3, TSSK2 (h) (human) (UniProt Q96PF2)
T3 sequence (looked up): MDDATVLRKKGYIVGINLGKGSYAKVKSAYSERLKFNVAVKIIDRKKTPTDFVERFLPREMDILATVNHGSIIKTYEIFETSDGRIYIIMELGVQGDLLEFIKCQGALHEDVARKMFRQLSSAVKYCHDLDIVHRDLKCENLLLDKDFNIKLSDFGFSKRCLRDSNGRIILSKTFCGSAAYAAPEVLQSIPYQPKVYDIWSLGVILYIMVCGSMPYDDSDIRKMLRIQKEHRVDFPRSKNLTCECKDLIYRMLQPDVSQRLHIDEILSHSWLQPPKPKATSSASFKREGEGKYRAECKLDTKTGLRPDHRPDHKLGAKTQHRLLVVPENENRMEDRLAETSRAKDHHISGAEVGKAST

ULK3 (h) (human) = target: T4, ULK3 (h) (human) (UniProt Q6PHR2)
T4 sequence (looked up): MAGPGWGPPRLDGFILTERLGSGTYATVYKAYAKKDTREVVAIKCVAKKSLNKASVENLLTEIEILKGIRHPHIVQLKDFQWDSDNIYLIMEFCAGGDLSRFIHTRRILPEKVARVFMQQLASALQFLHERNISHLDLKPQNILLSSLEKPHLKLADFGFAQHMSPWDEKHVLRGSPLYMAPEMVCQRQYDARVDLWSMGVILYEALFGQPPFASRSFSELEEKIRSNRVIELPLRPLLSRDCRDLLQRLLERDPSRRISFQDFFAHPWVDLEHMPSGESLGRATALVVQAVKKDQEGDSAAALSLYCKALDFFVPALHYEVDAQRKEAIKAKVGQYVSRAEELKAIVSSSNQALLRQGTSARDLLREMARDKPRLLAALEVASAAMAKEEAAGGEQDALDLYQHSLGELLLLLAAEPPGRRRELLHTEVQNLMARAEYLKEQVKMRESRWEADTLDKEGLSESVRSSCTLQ

PTK5 (h) (human), sequence (P42685 whole entry): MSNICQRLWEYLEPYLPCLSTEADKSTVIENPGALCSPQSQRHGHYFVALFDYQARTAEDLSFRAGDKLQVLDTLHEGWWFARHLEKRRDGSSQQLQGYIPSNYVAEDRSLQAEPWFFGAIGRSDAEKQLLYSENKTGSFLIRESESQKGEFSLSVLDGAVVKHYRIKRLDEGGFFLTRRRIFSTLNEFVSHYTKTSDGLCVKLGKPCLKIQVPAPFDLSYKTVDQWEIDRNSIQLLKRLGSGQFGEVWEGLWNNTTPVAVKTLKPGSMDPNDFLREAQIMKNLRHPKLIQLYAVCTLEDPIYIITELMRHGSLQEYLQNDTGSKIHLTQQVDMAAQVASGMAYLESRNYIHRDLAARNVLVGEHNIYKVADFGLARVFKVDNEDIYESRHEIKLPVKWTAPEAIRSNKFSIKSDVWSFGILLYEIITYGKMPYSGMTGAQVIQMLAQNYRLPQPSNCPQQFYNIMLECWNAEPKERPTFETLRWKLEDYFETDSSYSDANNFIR
PAK2 (h) (human), sequence (Q13177 whole entry): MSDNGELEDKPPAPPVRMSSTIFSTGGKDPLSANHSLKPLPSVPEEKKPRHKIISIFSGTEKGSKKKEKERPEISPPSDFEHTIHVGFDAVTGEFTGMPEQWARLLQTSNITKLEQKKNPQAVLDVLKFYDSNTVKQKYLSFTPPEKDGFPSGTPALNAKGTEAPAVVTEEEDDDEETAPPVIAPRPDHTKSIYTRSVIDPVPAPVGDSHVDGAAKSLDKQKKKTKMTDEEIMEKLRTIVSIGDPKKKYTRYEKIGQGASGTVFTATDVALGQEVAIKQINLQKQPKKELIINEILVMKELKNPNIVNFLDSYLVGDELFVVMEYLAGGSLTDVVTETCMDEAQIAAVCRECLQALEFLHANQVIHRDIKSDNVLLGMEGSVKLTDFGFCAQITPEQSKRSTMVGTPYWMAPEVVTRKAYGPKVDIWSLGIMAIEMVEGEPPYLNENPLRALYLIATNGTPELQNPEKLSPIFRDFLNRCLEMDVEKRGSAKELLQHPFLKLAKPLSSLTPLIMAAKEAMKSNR
PKBγ (h) (human), sequence (Q9Y243 whole entry): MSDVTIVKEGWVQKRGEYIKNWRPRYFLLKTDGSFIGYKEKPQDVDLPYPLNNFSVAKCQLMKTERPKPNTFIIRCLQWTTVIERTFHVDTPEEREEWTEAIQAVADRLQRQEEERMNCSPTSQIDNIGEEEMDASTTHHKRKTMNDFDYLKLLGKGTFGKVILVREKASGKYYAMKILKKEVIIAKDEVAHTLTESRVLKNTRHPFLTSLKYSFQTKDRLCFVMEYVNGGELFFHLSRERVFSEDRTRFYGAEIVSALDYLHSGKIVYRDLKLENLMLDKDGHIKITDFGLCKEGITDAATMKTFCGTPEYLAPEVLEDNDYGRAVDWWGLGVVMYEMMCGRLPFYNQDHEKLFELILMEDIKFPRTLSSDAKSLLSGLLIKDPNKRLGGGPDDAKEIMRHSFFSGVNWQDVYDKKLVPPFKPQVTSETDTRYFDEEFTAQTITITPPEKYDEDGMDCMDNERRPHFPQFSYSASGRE

% activity at 100 µM (ALK4 (h) (human)): 140% | % activity at 100 µM (ASK1 (h) (human)): 80% | % activity at 100 µM [1]: 5% | % activity at 100 µM [2]: 91% | % activity at 100 µM (CHK1 (h) (human)): 91% | % activity at 100 µM (CK1γ2 (h) (human)): 123% | % activity at 100 µM (DAPK2 (h) (human)): 32% | % activity at 100 µM (DMPK (h) (human)): 59% | % activity at 100 µM (DYRK2 (h) (human)): 155% | % activity at 100 µM (GRK6 (h) (human)): 147% | % activity at 100 µM (HIPK1 (h) (human)): 74% | % activity at 100 µM (HIPK3 (h) (human)): 93% | % activity at 100 µM (Hck (h) (human)): 72% | % activity at 100 µM (LIMK1 (h) (human)): 88% | % activity at 100 µM (MLCK (h) (human)): 2% | % activity at 100 µM [3]: 5% | % activity at 100 µM [4]: 3% | % activity at 100 µM (PAK2 (h) (human)): 65% | % activity at 100 µM (PKBγ (h) (human)): 20% | % activity at 100 µM (PKCα (h) (human)): 89% | % activity at 100 µM (PKCτ (h) (human)): 68% | % activity at 100 µM (PTK5 (h) (human)): 132% | % activity at 100 µM (Pim-1 (h) (human)): 8% | % activity at 100 µM (Src(1-530) (h) (human)): 23% | % activity at 100 µM (TSSK2 (h) (human)): 98% | % activity at 100 µM (ULK3 (h) (human)): 167%
Substance: MMI-0300 (peptide)
